Assay results as given in PMC8409985.

Molecular target: truncated human ACE2 ectodomain (residues 19–613) with C-terminal AVI-tag and 6xHis-tag, biotinylated (human) (UniProt Q9BYF1)
Test: BLI

SARS-CoV-2 RBD variant N439K (from UniProt P0DTC2 319-541) (domain or fragment)
t1/2: 1.85 min

SARS-CoV-2 RBD variant N501Y (from UniProt P0DTC2 319-541) (domain or fragment)
t1/2: 5.49 min
